Measured values: PMC2756588

Biological target: Sho1, P40073
Assay: SPOT array
Conditions: median of control spots 1148

Chain of Sho1, P40073 (P40073 287-367): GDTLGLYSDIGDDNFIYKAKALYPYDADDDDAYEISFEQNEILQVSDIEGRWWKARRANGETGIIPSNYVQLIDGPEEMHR

Row | Binder | SPOT intensity
1 | FPGKKSPRLPHRNKK | 84
2 | KDKKTKPTPPPKPSH | 50
3 | GSKSGPPPRPKKPST | 16

Biological target: T1, Lsb4, P32793
T1 sequence (P32793 402-468, looked up): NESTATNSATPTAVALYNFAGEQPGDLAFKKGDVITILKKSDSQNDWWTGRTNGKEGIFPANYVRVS
Assay: SPOT array
Conditions: median of control spots 397

Row | Binder | SPOT intensity
4 | FPGKKSPRLPHRNKK | 225
5 | KDKKTKPTPPPKPSH | 0
6 | GSKSGPPPRPKKPST | 2

Biological target: T2, Abp1, P15891
T2 sequence (P15891 535-592, looked up): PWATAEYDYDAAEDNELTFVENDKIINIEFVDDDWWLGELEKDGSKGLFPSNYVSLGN
Assay: SPOT array
Conditions: median of control spots 935

Row | Binder | SPOT intensity
7 | FPGKKSPRLPHRNKK | 175
8 | KDKKTKPTPPPKPSH | 190
9 | GSKSGPPPRPKKPST | 285

Biological target: T3, Sla1-2, P32790
T3 sequence (P32790 60-140, looked up): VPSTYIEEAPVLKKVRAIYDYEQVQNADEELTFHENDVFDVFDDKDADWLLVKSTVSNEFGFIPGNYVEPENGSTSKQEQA
Assay: SPOT array
Conditions: median of control spots 712

Row | Binder | SPOT intensity
10 | FPGKKSPRLPHRNKK | 0
11 | KDKKTKPTPPPKPSH | 1
12 | GSKSGPPPRPKKPST | 1

Biological target: T4, Pin3, Q06449
T4 sequence (Q06449 53-122, looked up): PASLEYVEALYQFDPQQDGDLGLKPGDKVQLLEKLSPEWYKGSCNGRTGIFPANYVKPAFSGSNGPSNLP
Assay: SPOT array
Conditions: median of control spots 2171

Row | Binder | SPOT intensity
13 | FPGKKSPRLPHRNKK | 0
14 | KDKKTKPTPPPKPSH | 0
15 | GSKSGPPPRPKKPST | 2

Biological target: Bem1-1, P29366
Sequence (P29366 55-141): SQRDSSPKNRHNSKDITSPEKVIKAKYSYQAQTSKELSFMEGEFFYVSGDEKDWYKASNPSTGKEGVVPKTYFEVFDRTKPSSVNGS
Assay: SPOT array
Conditions: median of control spots 4282

Row | Binder | SPOT intensity
16 | FPGKKSPRLPHRNKK | 0
17 | KDKKTKPTPPPKPSH | 1
18 | GSKSGPPPRPKKPST | 1

Biological target: T5, Hse1, P38753
T5 sequence (P38753 208-285, looked up): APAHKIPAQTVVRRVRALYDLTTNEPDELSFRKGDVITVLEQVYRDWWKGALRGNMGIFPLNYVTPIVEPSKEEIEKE
Assay: SPOT array
Conditions: median of control spots 1727

Row | Binder | SPOT intensity
19 | FPGKKSPRLPHRNKK | 8
20 | KDKKTKPTPPPKPSH | 2
21 | GSKSGPPPRPKKPST | 38

Biological target: Myo3, P36006
Assay: SPOT array
Conditions: median of control spots 468

Row | Binder | SPOT intensity
22 | FPGKKSPRLPHRNKK | 0
23 | KDKKTKPTPPPKPSH | 0
24 | GSKSGPPPRPKKPST | 3

Biological target: T6, Cdc25, P04821
T6 sequence (P04821 50-136, looked up): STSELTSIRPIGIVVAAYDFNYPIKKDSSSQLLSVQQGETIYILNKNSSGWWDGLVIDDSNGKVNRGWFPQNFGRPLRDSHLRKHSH
Assay: SPOT array
Conditions: median of control spots 969

Row | Binder | SPOT intensity
25 | FPGKKSPRLPHRNKK | 35
26 | KDKKTKPTPPPKPSH | 2
27 | GSKSGPPPRPKKPST | 0

Biological target: GST
Assay: SPOT array
Conditions: median of control spots 978

Row | Binder | SPOT intensity
28 | FPGKKSPRLPHRNKK | 1
29 | KDKKTKPTPPPKPSH | 3
30 | GSKSGPPPRPKKPST | 2

Biological target: T7, Bbc1, P47068
T7 sequence (P47068 1-78, looked up): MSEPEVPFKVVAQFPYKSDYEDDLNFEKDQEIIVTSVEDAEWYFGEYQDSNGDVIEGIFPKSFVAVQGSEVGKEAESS
Assay: SPOT array
Conditions: median of control spots 796

Row | Binder | SPOT intensity
31 | FPGKKSPRLPHRNKK | 13
32 | KDKKTKPTPPPKPSH | 0
33 | GSKSGPPPRPKKPST | 13

Biological target: T8, Hof1, Q05080
T8 sequence (Q05080 590-669, looked up): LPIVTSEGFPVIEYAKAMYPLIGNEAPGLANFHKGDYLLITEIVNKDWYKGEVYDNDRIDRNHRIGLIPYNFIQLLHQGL
Assay: SPOT array
Conditions: median of control spots 4086

Row | Binder | SPOT intensity
34 | FPGKKSPRLPHRNKK | 1
35 | KDKKTKPTPPPKPSH | 0
36 | GSKSGPPPRPKKPST | 0

Biological target: T9, Bzz1-1, P38822
T9 sequence (P38822 478-572, looked up): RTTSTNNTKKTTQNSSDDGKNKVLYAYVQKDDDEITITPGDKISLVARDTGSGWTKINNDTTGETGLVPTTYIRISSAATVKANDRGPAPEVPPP
Assay: SPOT array
Conditions: median of control spots 4446

Row | Binder | SPOT intensity
37 | FPGKKSPRLPHRNKK | 0
38 | KDKKTKPTPPPKPSH | 0
39 | GSKSGPPPRPKKPST | 3

Biological target: T10, Boi2, P39969
T10 sequence (P39969 32-116, looked up): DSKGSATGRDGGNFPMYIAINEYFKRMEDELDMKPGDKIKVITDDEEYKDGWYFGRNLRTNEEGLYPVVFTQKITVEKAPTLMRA
Assay: SPOT array
Conditions: median of control spots 1161

Row | Binder | SPOT intensity
40 | FPGKKSPRLPHRNKK | 0
41 | KDKKTKPTPPPKPSH | 0
42 | GSKSGPPPRPKKPST | 0

Biological target: T11, Boi1, P38041
T11 sequence (P38041 1-86, looked up): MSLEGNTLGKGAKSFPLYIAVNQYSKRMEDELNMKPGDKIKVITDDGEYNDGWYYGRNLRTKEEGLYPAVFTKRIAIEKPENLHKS
Assay: SPOT array
Conditions: median of control spots 1162

Row | Binder | SPOT intensity
43 | FPGKKSPRLPHRNKK | 7
44 | KDKKTKPTPPPKPSH | 0
45 | GSKSGPPPRPKKPST | 4

Biological target: T12, Fus1, P11710
T12 sequence (P11710 432-512, looked up): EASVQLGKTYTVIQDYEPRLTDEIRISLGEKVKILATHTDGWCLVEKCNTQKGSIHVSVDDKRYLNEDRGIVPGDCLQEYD
Assay: SPOT array
Conditions: median of control spots 1200

Row | Binder | SPOT intensity
46 | FPGKKSPRLPHRNKK | 0
47 | KDKKTKPTPPPKPSH | 4
48 | GSKSGPPPRPKKPST | 0

Biological target: T13, Nbp2, Q12163
T13 sequence (Q12163 103-180, looked up): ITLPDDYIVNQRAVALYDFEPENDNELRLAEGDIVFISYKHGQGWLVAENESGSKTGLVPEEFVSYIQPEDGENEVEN
Assay: SPOT array
Conditions: median of control spots 357

Row | Binder | SPOT intensity
49 | FPGKKSPRLPHRNKK | 0
50 | KDKKTKPTPPPKPSH | 2
51 | GSKSGPPPRPKKPST | 0

Biological target: Rvs167, P39743
Sequence (P39743 419-482): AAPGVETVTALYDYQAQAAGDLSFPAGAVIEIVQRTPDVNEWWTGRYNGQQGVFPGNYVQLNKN
Assay: SPOT array
Conditions: median of control spots 2707

Row | Binder | SPOT intensity
52 | FPGKKSPRLPHRNKK | 314
53 | KDKKTKPTPPPKPSH | 1
54 | GSKSGPPPRPKKPST | 1

Biological target: T14, Lsb1, P53281
T14 sequence (P53281 45-122, looked up): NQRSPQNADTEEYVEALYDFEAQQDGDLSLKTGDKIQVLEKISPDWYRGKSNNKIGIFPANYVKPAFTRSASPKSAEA
Assay: SPOT array
Conditions: median of control spots 388

Row | Binder | SPOT intensity
55 | FPGKKSPRLPHRNKK | 5
56 | KDKKTKPTPPPKPSH | 0
57 | GSKSGPPPRPKKPST | 0

Biological target: T15, Sla1-3, P32790
T15 sequence (P32790 344-424, looked up): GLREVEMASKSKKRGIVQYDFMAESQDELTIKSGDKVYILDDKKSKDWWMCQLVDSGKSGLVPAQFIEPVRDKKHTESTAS
Assay: SPOT array
Conditions: median of control spots 5475

Row | Binder | SPOT intensity
58 | FPGKKSPRLPHRNKK | 12
59 | KDKKTKPTPPPKPSH | 0
60 | GSKSGPPPRPKKPST | 4

Biological target: T16, Bzz1-2, P38822
T16 sequence (P38822 568-633, looked up): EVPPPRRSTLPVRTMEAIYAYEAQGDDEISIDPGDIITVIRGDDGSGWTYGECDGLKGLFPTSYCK
Assay: SPOT array
Conditions: median of control spots 4538

Row | Binder | SPOT intensity
61 | FPGKKSPRLPHRNKK | 5
62 | KDKKTKPTPPPKPSH | 1
63 | GSKSGPPPRPKKPST | 11

Biological target: T17, Pex13, P80667
T17 sequence (P80667 295-386, looked up): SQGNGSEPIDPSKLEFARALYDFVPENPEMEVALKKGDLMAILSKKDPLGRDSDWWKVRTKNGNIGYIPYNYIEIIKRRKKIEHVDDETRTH
Assay: SPOT array
Conditions: median of control spots 1341

Row | Binder | SPOT intensity
64 | FPGKKSPRLPHRNKK | 16
65 | KDKKTKPTPPPKPSH | 0
66 | GSKSGPPPRPKKPST | 23

Biological target: Bem1-2, P29366
Sequence (P29366 139-227): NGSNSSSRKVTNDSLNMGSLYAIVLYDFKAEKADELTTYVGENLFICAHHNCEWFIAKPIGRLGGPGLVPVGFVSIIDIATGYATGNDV
Assay: SPOT array
Conditions: median of control spots 4347

Row | Binder | SPOT intensity
67 | FPGKKSPRLPHRNKK | 0
68 | KDKKTKPTPPPKPSH | 5
69 | GSKSGPPPRPKKPST | 2

Biological target: T18, Bud14, P27637
T18 sequence (P27637 247-328, looked up): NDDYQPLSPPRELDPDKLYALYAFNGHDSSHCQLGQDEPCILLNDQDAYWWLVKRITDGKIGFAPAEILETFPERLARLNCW
Assay: SPOT array
Conditions: median of control spots 956

Row | Binder | SPOT intensity
70 | FPGKKSPRLPHRNKK | 22
71 | KDKKTKPTPPPKPSH | 4
72 | GSKSGPPPRPKKPST | 7

Biological target: T19, Myo5, Q04439
T19 sequence (Q04439 1072-1160, looked up): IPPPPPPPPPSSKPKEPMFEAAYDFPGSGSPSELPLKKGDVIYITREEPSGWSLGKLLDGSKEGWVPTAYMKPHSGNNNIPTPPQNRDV
Assay: SPOT array
Conditions: median of control spots 471

Row | Binder | SPOT intensity
73 | FPGKKSPRLPHRNKK | 0
74 | KDKKTKPTPPPKPSH | 0
75 | GSKSGPPPRPKKPST | 0

Biological target: T20, Cyk3, Q07533
T20 sequence (Q07533 1-83, looked up): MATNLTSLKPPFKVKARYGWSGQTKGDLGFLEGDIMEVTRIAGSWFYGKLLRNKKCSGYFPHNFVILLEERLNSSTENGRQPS
Assay: SPOT array
Conditions: median of control spots 1451

Row | Binder | SPOT intensity
76 | FPGKKSPRLPHRNKK | 3
77 | KDKKTKPTPPPKPSH | 2
78 | GSKSGPPPRPKKPST | 3

Biological target: T21, Lsb3, P43603
T21 sequence (P43603 385-451, looked up): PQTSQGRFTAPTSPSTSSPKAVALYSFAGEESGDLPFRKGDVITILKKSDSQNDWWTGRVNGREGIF
Assay: SPOT array
Conditions: median of control spots 406

Row | Binder | SPOT intensity
79 | FPGKKSPRLPHRNKK | 155
80 | KDKKTKPTPPPKPSH | 2
81 | GSKSGPPPRPKKPST | 55
